{
  "source": "paper PMC12775136",
  "about": "“Mechanistic insights into recruitment and regulation of the RNA helicase UPF1 in replication-dependent histone mRNA decay”",
  "key": {"SLBPfl": {"molecular_target": "SLBPfl (human, UniProt Q14493 1-270)", "experiment": "fluorescence anisotropy; 0.5 mM EDTA; Fluorescence anisotropy: 20 mM HEPES pH 7.5, 100 mM NaCl, 0.5 mM EDTA, 100 ug/ml BSA; 30 min at room temperature, read at 25 C; one-site fit with Hill slope, n=3", "conditions": "protein: recombinant, tags: 6xHis-TEV (N-terminal), label: 5' 6-FAM"}, "3'hExofl (ERI1) [1]": {"molecular_target": "T1, 3'hExofl (ERI1) (human, UniProt Q8IV48 1-349)", "T1 sequence": "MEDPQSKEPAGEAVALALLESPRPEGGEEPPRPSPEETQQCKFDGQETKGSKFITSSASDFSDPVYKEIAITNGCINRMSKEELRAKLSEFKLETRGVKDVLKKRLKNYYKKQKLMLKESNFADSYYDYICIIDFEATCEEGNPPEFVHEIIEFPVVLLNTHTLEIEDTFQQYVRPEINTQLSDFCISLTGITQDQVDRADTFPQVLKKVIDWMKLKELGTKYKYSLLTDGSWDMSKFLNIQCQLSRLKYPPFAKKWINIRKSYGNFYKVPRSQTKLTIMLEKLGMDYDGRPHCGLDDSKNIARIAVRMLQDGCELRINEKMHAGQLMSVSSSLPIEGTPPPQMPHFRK", "experiment": "fluorescence anisotropy; 0.5 mM EDTA, no Mg2+; Kd shown only in figure; Fluorescence anisotropy: 20 mM HEPES pH 7.5, 100 mM NaCl, 0.5 mM EDTA, 100 ug/ml BSA; 30 min at room temperature, read at 25 C; one-site fit with Hill slope, n=3", "conditions": "protein: recombinant, tags: 6xHis, HRV-3C site (N-terminal), label: 5' 6-FAM, hairpin"}, "UPF1-CHh": {"molecular_target": "T2, UPF1-CHh (human, UniProt Q92900-2 115-914)", "T2 sequence": "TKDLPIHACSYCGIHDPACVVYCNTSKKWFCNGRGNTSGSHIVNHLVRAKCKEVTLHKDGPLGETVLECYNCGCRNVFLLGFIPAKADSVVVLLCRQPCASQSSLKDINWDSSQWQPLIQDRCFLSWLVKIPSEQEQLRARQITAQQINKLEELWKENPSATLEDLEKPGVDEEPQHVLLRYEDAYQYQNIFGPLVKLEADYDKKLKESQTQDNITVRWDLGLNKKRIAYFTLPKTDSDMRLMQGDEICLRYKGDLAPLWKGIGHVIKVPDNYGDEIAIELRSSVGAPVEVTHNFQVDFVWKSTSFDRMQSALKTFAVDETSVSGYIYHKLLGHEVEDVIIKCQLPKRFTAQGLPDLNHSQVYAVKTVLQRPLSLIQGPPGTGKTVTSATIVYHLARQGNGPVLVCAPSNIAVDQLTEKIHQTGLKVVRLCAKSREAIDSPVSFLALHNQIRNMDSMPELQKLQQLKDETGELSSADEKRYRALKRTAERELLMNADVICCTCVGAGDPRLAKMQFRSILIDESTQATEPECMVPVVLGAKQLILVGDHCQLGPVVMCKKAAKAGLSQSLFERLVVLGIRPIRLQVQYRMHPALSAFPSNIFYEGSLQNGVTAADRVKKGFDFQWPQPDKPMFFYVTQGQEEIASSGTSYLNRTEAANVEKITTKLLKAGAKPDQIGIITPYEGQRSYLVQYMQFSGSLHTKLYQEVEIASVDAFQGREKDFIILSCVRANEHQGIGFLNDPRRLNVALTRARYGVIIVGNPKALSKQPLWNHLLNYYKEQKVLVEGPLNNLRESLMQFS", "experiment": "cryoEM structure (3.6 A); no ATP; Zn2+; Fluorescence anisotropy: 20 mM HEPES pH 7.5, 100 mM NaCl, 0.5 mM EDTA, 100 ug/ml BSA; 30 min at room temperature, read at 25 C; one-site fit with Hill slope, n=3", "conditions": "protein: recombinant; tags: 6xHis; hairpin with 5' single-stranded U12 extension"}, "UPF1-Hel;SLBP-N [2]": {"molecular_target": "T3, UPF1-Hel;SLBP-N (human;human, UniProt Q92900-2;Q14493 295-914;1-198, |)", "experiment": "preparative SEC; ternary complex reconstituted for crosslinking MS; Fluorescence anisotropy: 20 mM HEPES pH 7.5, 100 mM NaCl, 0.5 mM EDTA, 100 ug/ml BSA; 30 min at room temperature, read at 25 C; one-site fit with Hill slope, n=3", "conditions": "protein: recombinant;recombinant; tags: 6xHis;6xHis-TEV; copies: 1;1; hairpin with 5' single-stranded U12 extension"}, "UPF1-Hel;SLBP-N [3]": {"molecular_target": "T3, UPF1-Hel;SLBP-N", "experiment": "analytical SEC; stable UPF1-SLBP complex only with SL26; Fluorescence anisotropy: 20 mM HEPES pH 7.5, 100 mM NaCl, 0.5 mM EDTA, 100 ug/ml BSA; 30 min at room temperature, read at 25 C; one-site fit with Hill slope, n=3", "conditions": "protein: recombinant;recombinant; tags: 6xHis;6xHis-TEV; copies: 1;1; hairpin, 6 bp stem, 4 nt loop"}, "3'hExofl (ERI1) [4]": {"molecular_target": "T1, 3'hExofl (ERI1)", "experiment": "fluorescence anisotropy; 0.5 mM EDTA, no Mg2+; affinity comparable to SL26 and SL24; Kd shown only in figure; Fluorescence anisotropy: 20 mM HEPES pH 7.5, 100 mM NaCl, 0.5 mM EDTA, 100 ug/ml BSA; 30 min at room temperature, read at 25 C; one-site fit with Hill slope, n=3", "conditions": "protein: recombinant; tags: 6xHis, HRV-3C site (N-terminal); label: 5' 6-FAM; partial hairpin; 3' arm lacks last 2 stem nt"}},
  "data": [
    {"binder": "CCAAAGGCUCUUUUCAGAGCCACU (structured_RNA)", "note": "[6-FAM-SL24]", "values": [
      {"measurement": "Kd", "setting": "SLBPfl; hairpin, intact 6 bp stem", "value": "~7", "unit": "nM"},
      {"measurement": "binding result", "setting": "3'hExofl (ERI1) [1]; intact 6 bp stem", "value": "binds"}
    ]},
    {"binder": "UUUUUUUUUUUUCCAAAGGCUCUUUUCAGAGCCACCCA (structured_RNA)", "note": "[U-SL (12U-26SL)]", "values": [
      {"measurement": "binding result", "setting": "UPF1-CHh", "value": "binds"},
      {"measurement": "binding result", "setting": "UPF1-Hel;SLBP-N [2]", "value": "binds"}
    ]},
    {"binder": "CCAAAGGCUCUUUUCAGAGCCACCCA (structured_RNA)", "note": "[SL26 RNA (SEC)]", "values": [
      {"measurement": "binding result", "setting": "UPF1-Hel;SLBP-N [3]", "value": "binds"}
    ]},
    {"binder": "CCAAAGGCUCUUUUCAGAGCCACCCA (structured_RNA)", "note": "[6-FAM-SL26]", "values": [
      {"measurement": "Kd", "setting": "SLBPfl; hairpin, 6 bp stem, 4 nt loop", "value": "~6", "unit": "nM"},
      {"measurement": "binding result", "setting": "3'hExofl (ERI1) [1]; 6 bp stem, 4 nt loop", "value": "binds"}
    ]},
    {"binder": "CCAAAGGCUCUUUUCAGAG (structured_RNA)", "note": "[6-FAM-SL19]", "values": [
      {"measurement": "Kd", "setting": "SLBPfl; partial hairpin, 3' arm lacks last 2 stem nt", "value": "~500", "unit": "nM"},
      {"measurement": "binding result", "setting": "3'hExofl (ERI1) [4]", "value": "binds"}
    ]}
  ]
}
